The record followed here is US20240400659A1 (BIOATLA, published 2024).

Positions count from the first letter of the chain named. Names and notes keep the numbering of the source.

One may read the EC50 as the concentration that produces a half-maximal response. Read a low EC50 as higher potency in that assay.

T1: mouse ApoE (mouse, UniProt P08226 19-311, limits assumed)
T1 construct: also called msApoE; ms ApoE
T1 sequence (looked up): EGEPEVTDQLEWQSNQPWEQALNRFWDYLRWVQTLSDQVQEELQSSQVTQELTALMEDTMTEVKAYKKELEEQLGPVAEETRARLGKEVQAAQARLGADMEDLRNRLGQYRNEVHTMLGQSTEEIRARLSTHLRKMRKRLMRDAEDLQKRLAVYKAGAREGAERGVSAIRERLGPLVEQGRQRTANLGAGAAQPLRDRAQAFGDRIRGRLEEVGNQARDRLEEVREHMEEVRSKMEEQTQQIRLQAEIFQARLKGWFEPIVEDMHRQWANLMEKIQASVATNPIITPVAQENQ

B1: Anti-ApoE wildtype antibody BAP191.01-WT (antibody, V domains shown)
VH: QIQLVQSGPELKKPGETVKISCKASGYTFTTAGMQWVQKMPGKGFKWIGWINTHSGEPKYAEDFKGRFAFSLETSASTAYLQISNLKNEDTATYFCARMGGYAMDYWGQGTSVTVSS
VL: DIKLTQSPSSMYASLGERVTITCKASEDINSYLSWFQQKPGKSPKTLIYRANRLVDGVPSRFSGSGSGQDYSLTISSLEYEDMGIYYCLQYDEFPLTFGAGTKLELT
notes: also called benchmark; parent
B2: BAP191.01-CPE-LC-P095D (antibody, V domains shown)
VH: B1 VH
VL: B1 VL with P95D
B3: BAP191.01-CPE-HC-R098E (antibody, V domains shown)
VH: B1 VH with R98E
VL: B1 VL
B4: BAP191.01-CPE-HC-M099E (antibody, V domains shown)
VH: B1 VH with M99E
VL: B1 VL
B5: BAP191.01-CPE-HC-I051D (antibody, V domains shown)
VH: B1 VH with I51D
VL: B1 VL
notes: also called BAP191.01-CPE-HC-1051D
B6: BAP191.01-CPE-HC-M104E (antibody, V domains shown)
VH: B1 VH with M104E
VL: B1 VL
B7: BAP191-01-CPE-HC-M034D (antibody, V domains shown)
VH: B1 VH with M34D
VL: B1 VL
B8: BAP191.01-CPE-LC-Y091D (antibody, V domains shown)
VH: B1 VH
VL: B1 VL with Y91D

One assay addresses T1, mouse ApoE. Put plainly: pH affinity ELISA, coated mouse ApoE.
Turning to B1, the “Ratio pH 7.4/6.0 (EC50)” value was found to be 0.96 ratio.

For the molecule B2, the “Ratio pH 7.4/6.0 (EC50)” value is 1.67 ratio.

With B3, the “Ratio pH 7.4/6.0 (EC50)” value was 2.53 ratio.

In the case of B4, the “Ratio pH 7.4/6.0 (EC50)” value stood at 2.75 ratio.

For B5, the “Ratio pH 7.4/6.0 (EC50)” value turned out to be 3.76 ratio.

In the case of B6, the “Ratio pH 7.4/6.0 (EC50)” value was found to be 2.25 ratio.

With B7, the “Ratio pH 7.4/6.0 (EC50)” value turned out to be 3.71 ratio.

A further assay deals with T2, Apolipoprotein E4 (human, UniProt P02649 19-317).
T2 construct: also called ApoE4; hApoE4
T2 sequence (P02649 19-317 C130R limits assumed): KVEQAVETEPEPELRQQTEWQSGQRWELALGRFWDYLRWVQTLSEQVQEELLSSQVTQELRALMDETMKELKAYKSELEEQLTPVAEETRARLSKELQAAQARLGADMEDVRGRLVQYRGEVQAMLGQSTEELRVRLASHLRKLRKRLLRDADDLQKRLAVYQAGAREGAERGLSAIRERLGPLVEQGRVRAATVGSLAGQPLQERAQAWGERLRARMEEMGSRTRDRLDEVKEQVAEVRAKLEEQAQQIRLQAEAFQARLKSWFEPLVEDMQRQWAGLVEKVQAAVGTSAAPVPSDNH
Put plainly: pH affinity ELISA, coated hApoE4, pH 6.0. In general terms: An ELISA detects its analyte on a solid surface through an enzyme-linked reagent.
Take B1: a half-maximal effect (EC50) was put at 0.0797 mg/L.

Take B8: the EC50 amounted to 0.084 mg/L.

For B2, the EC50 amounted to 0.0893 mg/L.

B3 yielded an EC50 of 4.36 mg/L.

The molecule B4 had an EC50 of 2.93 mg/L.

As for B5, the midpoint of the response, the EC50, lay at 1.54 mg/L.

In turn, B6 showed an EC50 of 4.2 mg/L.

In turn, B7 gave an EC50 of 0.685 mg/L.

In another assay the target is T1, mouse ApoE. The assay is described as follows: pH affinity ELISA, coated mouse ApoE, pH 7.4.
On to B1, for which the EC50 was 0.089 mg/L.

B2: the midpoint of the response, the EC50, lay at 0.244 mg/L.

B3 registered an EC50 of 0.413 mg/L.

For the molecule B4, the EC50 was 1.58 mg/L.

B5 showed an EC50 of 0.39 mg/L.

Molecule B6 showed an EC50 of 2.45 mg/L.

The molecule B7 came in with an EC50 of 0.389 mg/L.

For another assay, the target named is T3, Apolipoprotein E3 (human, UniProt P02649 19-317).
T3 construct: also called ApoE3; hApoE3
T3 sequence (P02649 19-317 limits assumed): as the sequence (P02649 19-317 C130R limits assumed) above, with R112C counted along it
The assay is described as follows: pH affinity ELISA, coated hApoE3.
As for B1, the “Ratio pH 7.4/6.0 (EC50)” value was 0.73 ratio.

With B2, the “Ratio pH 7.4/6.0 (EC50)” value was 1.27 ratio.

For the molecule B6, the “Ratio pH 7.4/6.0 (EC50)” value worked out at 2.95 ratio.

For a further assay, the target named is T3, Apolipoprotein E3. The assay is described as follows: pH affinity ELISA, coated hApoE3, pH 6.0.
On to B1, for which the EC50 amounted to 0.136 mg/L.

For the molecule B2, a half-maximal response (EC50) required 0.245 mg/L.

Regarding B6, the response was half-maximal at 3.13 mg/L (EC50).

The next assay deals with T3, Apolipoprotein E3. The assay is described as follows: pH affinity ELISA, coated hApoE3, pH 7.4.
B1 showed an EC50 of 0.0991 mg/L.

Molecule B2 had an EC50 of 0.311 mg/L.

B6 showed an EC50 of 9.25 mg/L.

The target in a further assay is T2, Apolipoprotein E4. The assay is described as follows: pH affinity ELISA, coated hApoE4.
In the case of B1, the “Ratio pH 7.4/6.0 (EC50)” value was 0.46 ratio.

For the molecule B8, the “Ratio pH 7.4/6.0 (EC50)” value stood at 1.79 ratio.

As for B2, the “Ratio pH 7.4/6.0 (EC50)” value came to 1.65 ratio.

With B3, the “Ratio pH 7.4/6.0 (EC50)” value was found to be 4.33 ratio.

As to B4, the “Ratio pH 7.4/6.0 (EC50)” value worked out at 2350 ratio.

As for B5, the “Ratio pH 7.4/6.0 (EC50)” value was 3.07 ratio.

With B6, the “Ratio pH 7.4/6.0 (EC50)” value amounted to 18400 ratio.

Consider B7, for which the “Ratio pH 7.4/6.0 (EC50)” value is 3.01 ratio.

The target in the next assay is T1, mouse ApoE. Put plainly: pH affinity ELISA, coated mouse ApoE, pH 6.0.
Molecule B1 yielded an EC50 of 0.0926 mg/L.

B2 showed an EC50 of 0.146 mg/L.

In the case of B3, it took 0.163 mg/L to reach a half-maximal effect (EC50).

As to B4, the EC50 amounted to 0.573 mg/L.

On to B5, for which the EC50 was found to be 0.104 mg/L.

Molecule B6 registered an EC50 of 1.09 mg/L.

As to B7, a half-maximal effect (EC50) was put at 0.105 mg/L.

In a further assay the target is T2, Apolipoprotein E4. Put plainly: pH affinity ELISA, coated hApoE4, pH 7.4.
Turning to B1, the EC50 is 0.0368 mg/L.

As for B8, the midpoint of the response, the EC50, lay at 0.15 mg/L.

B2 showed an EC50 of 0.147 mg/L.

With B3, the EC50 was determined as 18.9 mg/L.

In turn, B4 displayed an EC50 of 6890 mg/L.

With B5, it took 4.75 mg/L to reach a half-maximal effect (EC50).

Turning to B6, a half-maximal response (EC50) required 68700 mg/L.

B7: the EC50 came out at 2.06 mg/L.
